The record followed here is patent US20030082683A1.

The target of the assay is hIK1 intermediate conductance, calcium-activated potassium channel (human) (UniProt O15554). The experiment in a line: cell-based or functional assay.
Sequence of hIK1 intermediate conductance, calcium-activated potassium channel (human) (O15554 other isoform, or with tags, fused parts or gaps): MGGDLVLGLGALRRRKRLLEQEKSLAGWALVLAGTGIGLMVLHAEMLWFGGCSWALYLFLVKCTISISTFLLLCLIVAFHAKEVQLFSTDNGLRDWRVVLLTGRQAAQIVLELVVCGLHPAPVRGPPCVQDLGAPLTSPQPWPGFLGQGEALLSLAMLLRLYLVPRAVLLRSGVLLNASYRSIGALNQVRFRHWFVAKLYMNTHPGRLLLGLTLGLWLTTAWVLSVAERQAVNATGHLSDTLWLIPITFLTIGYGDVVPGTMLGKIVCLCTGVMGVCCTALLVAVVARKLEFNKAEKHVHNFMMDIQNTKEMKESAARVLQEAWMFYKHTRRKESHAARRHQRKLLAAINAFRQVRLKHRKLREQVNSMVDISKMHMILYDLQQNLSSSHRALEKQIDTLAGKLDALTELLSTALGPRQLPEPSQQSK

Sequence of iberiotoxin (P24663 whole entry): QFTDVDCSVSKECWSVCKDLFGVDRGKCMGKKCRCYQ

With “iberiotoxin (from UniProt P24663 1-37) (peptide)”, the percent block of hIK1 current at 50 nM IBX was 15%.
